Assay results published in US20210324061A1 (ARGENX BVBA, published 2021).
Several values for one entry are separate records, joined by “and”; a condition that tells them apart may be missing. Equal entries are not always repeated.

Columns and labels:
[1] = molecular target: T1, human GARP-TGF-β1 complex (recombinant complex of human GARP and latent human TGF-β1) (human, UniProt Q14392 20-627; P01137 30-278; P01137 279-390); assay: SPR Biacore 3000, chip ~4000 RU hGARP-TGF-β; slope vs -20°C reference (=100%); sample stored 28 d at 37°C
T1 construct: also called huGARP-TGF-β1; hGARP-TGF-β1
Method: (§1) From the intermediate concentration of all samples at 1 mg/ml described above, an extra 1/250 dilution was done for SPR analysis to yield a final concentration of 4 μg/ml. This 1/250 dilution took place for all conditions in two steps: a) 5 μl (1 mg/ml)+120 μl HBS-EP (SPR buffer) and b) an extra 10× dilution (15 μl+135 μl HBS-EP). For each antibody and each time point, a separate standard curve was prepared, starting from a −80° C. frozen sample. This was analyzed together with the stability samples to determine the slope of each curve after general fitting of the standards. These slopes were used to calculate the percent activity of the stability samples by setting the reference sample at 100%.
(§2) To determine the target binding activity in Biacore, a CM5 chip was coated with ˜4000 RU human GARP-TGF-β complex. Flow was set to 30 μl/min with a “kinject” injection mode and two regeneration injections (1 mM NaCl, 2.5 mM glycine pH 1.5) with a 5 min interval.
(§3) Open the curves in the BIAEVAL program and select value ‘2-1’ (1: blank, 2 hGARP-TGF-β1) [0263] Select one curve at the time for plot overlay [0264] Delete the regeneration part of the curve [0265] Select the baseline just before the injection and transform the Y-axis for ‘zero at median of selection’ [0266] Select ‘General Fit’, starting from 120 sec after injecting and ending at 155 sec [0267] Plot the standards in Excel and determine the slope of the curve for each antibody [0268] These values are converted to a percent activity by setting the reference (sample stored at −20° C.) at 100%

[2] = molecular target: T1, human GARP-TGF-β1 complex (recombinant …); assay: SPR Biacore T200, CM5 chip coated with GARP-TGF-β1 complex at 150 RU
Method: (§4) The affinity of all antibodies (including 39B6-A) for GARP-TGF-β1 was tested by BiacoreT200 using a CM5 chip coated with GARP-TGF-β1 complex at 150RU (Table 17) or coated with the antibodies at 200RU (Table 17)

[3] = molecular target: T1, human GARP-TGF-β1 complex (recombinant …); assay: SPR Biacore 3000, chip ~4000 RU hGARP-TGF-β; slope vs -20°C reference (=100%); sample stored 56 d at 37°C
Method: as §1, §2, §3

[4] = molecular target: T1, human GARP-TGF-β1 complex (recombinant …); assay: SPR Biacore 3000, chip ~4000 RU hGARP-TGF-β; slope vs -20°C reference (=100%); sample stored 28 d at 5°C
Method: as §1, §2, §3

[5] = molecular target: T1, human GARP-TGF-β1 complex (recombinant …); assay: SPR Biacore 3000, chip ~4000 RU hGARP-TGF-β; slope vs -20°C reference (=100%); sample stored 56 d at 5°C
Method: as §1, §2, §3

[6] = molecular target: T1, human GARP-TGF-β1 complex (recombinant …); assay: SPR Biacore 3000, chip ~4000 RU hGARP-TGF-β; slope vs -20°C reference (=100%); sample 0 d, 37°C arm
Method: as §1, §2, §3

[7] = molecular target: T1, human GARP-TGF-β1 complex (recombinant …); assay: SPR Biacore 3000, chip ~4000 RU hGARP-TGF-β; slope vs -20°C reference (=100%); sample 0 d, 5°C arm
Method: as §1, §2, §3

[8] = molecular target: T1, human GARP-TGF-β1 complex (recombinant …); assay: SPR Biacore T200, CM5 chip coated with the antibody at 200 RU, complex in solution
Method: as §4

[9] = molecular target: T1, human GARP-TGF-β1 complex (recombinant …); assay: SPR Biacore T200, CM5 chip coated with the antibody at 1000 RU, complex in solution
Method: Clone 39B6 was selected as the lead germlined clone based on its binding characteristics. This antibody was produced in two effector function deficient formats, hlgG1^N297Q and hlgG4^S228P, and stability tests were carried out. Prior to the stability testing, the affinity of the effector deficient 39B6 antibodies for GARP-TGF-β1 was tested by BiacoreT200 using a CM5 chip coated with GARP-TGF-β1 complex at 750RU (Table 14) or coated with the antibodies at 1000RU (Table 15).

[10] = molecular target: T1, human GARP-TGF-β1 complex (recombinant …); assay: SPR, Fab in periplasmic extract, off-rate on human GARP-TGF-β1 complex
Method: Masterplates were picked from selection round 2, 3, 4, 5 and 6 (48 clones for each round). Periplasmic extracts were prepared and off-rates were determined by SPR. All clones were DNA-sequenced and amino acid sequences were deduced thereof. The off-rates of these clones were measured as periplasmic extracts on SPR, and compared to the off-rate of Fab 17H5.

T1 sequence (Q14392 20-627 limits assumed, chain 1 of 3): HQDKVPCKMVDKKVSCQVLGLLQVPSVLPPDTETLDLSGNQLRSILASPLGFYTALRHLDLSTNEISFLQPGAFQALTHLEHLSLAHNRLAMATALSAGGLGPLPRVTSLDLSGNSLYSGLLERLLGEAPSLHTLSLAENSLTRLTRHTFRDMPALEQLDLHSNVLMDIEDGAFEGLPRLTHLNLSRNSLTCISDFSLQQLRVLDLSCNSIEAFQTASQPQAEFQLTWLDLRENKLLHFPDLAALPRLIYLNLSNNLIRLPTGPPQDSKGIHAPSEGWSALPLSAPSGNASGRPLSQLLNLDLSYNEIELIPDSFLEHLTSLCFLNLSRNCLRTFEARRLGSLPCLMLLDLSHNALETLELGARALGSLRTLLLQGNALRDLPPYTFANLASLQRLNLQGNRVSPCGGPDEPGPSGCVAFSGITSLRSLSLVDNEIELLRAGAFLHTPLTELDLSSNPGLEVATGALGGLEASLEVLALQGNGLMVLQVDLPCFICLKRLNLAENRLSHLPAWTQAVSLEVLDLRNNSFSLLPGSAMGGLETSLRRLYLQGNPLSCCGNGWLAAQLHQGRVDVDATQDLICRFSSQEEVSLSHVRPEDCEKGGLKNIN
T1 sequence (P01137 30-278 limits assumed, chain 2 of 3): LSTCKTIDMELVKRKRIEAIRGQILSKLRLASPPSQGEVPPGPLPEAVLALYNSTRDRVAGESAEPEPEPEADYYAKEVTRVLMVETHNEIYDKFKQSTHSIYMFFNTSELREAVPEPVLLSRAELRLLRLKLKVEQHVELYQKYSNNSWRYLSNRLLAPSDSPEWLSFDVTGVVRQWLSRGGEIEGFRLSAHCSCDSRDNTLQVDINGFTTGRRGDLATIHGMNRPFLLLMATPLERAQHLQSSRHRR
T1 sequence (P01137 279-390 limits assumed, chain 3 of 3): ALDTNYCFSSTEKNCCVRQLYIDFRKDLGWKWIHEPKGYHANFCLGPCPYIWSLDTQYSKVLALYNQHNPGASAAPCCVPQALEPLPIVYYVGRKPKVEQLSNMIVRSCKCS

B1: 39B6-ANK IgG4 S228P (antibody, V domains shown)
VH: QVQLVQPGAEVRKPGASVKVSCKASGYRFTSYYIDWVRQAPGQGLEWMGRIDPEDAGTKYAQKFQGRVTMTADTSTSTVYVELSSLRSEDTAVYYCARNKWETVVVGDLMYEYEYWGQGTLVTVSS
VL: DIQMTQSPSSLSASVGDRVTITCQASQSISSYLAWYQQKPGQAPKILIYGASRLKTGVPSRFSGSGSGTSFTLTISSLEPEDAATYYCQQYASVPVTFGQGTKVEIKR
notes: Variant of 39B6-A in IgG4 S228P format; Positions are Kabat-type
[1]
  Activity on Biacore (%): 77.8%
[2]
  Fold-difference (KD vs 39B6-A): 0.9 fold
  Kd: 0.88 nM
[3]
  Activity on Biacore (%): 62.4%
[4]
  Activity on Biacore (%): 101%
[5]
  Activity on Biacore (%): 101%
[6]
  Activity on Biacore (%): 130%
[7]
  Activity on Biacore (%): 130%
[8]
  Fold-difference (KD vs 39B6-A): 1.5 fold
  Kd: 2.02 nM

B2: 39B6 IgG1-N297Q (antibody, V domains shown)
VH: QVQLVQPGAEVRKPGASVKVSCKASGYRFTSYYIDWVRQAPGQGLEWMGRIDPEDGGTKYAQKFQGRVTMTADTSTSTVYVELSSLRSEDTAVYYCARNEWETVVVGDLMYEYEYWGQGTLVTVSS
VL: DIQMTQSPSSLSASVGDRVTITCQASQSISSYLAWYQQKPGQAPKILIYGASRLKTGVPSRFSGSGSGTSFTLTISSLEPEDAATYYCQQYASVPVTFGQGTKVEIK
notes: Effector-deficient format hIgG1 N297Q; The second row may be the IgG4 S228P form; Both rows are written here as printed
[9]
  Kd: 1.23 nM and 1.02 nM

B3: Fab 39B10 (Fab, V domains shown)
VH: EVQLVQSGAELKKPGASVKVSCKASGYRFTSYYIDWVRQAPGQGLEWMGRIDPEEGGTKYAQKFQGRVTMTADTSTSTAYMELSSLRSEDTAVYYCARNEWETVVVGDLMYEYEYWGQGTLVTVSS
VL: DIQMTQSPSSLSASLGDRVTITCQASQSISSYLAWYQQKPGQAPNILIYGASRLKTGVPSRFSGSGSGTDFTLTISGLEAEDFATYYCQQYASVPVTFGQGTKVEIK
notes: Germlined Fab with human CH1 and Cκ (pCB13), tested as periplasmic extract
[10]
  koff: 0.000236 s⁻¹

B4: Fab 38F2 (Fab, V domains shown)
VH: QVQLVQPGAELKKPGASVKVSCKASGYRFTSYYIDWVRQAPGQGLEWMGRIDPEDAGTKYAQKFQGRVTFTADTSTSTVYVELSSLRSEDTAVYYCARNEWETVVVGDLTYEYEYWGQGTLVTVSS
VL: DIQMTQSPSSLSASVGDRVTITCQASQSISSYLAWYQQKPGKAPNLLIYGASRLKTEVPSRFSGSGSGTDFTLISGLEPEDAGTYYCQQYASVPVTFGQGTKVEIK
notes: as for B3
[10]
  koff: 0.000408 s⁻¹

B5: Fab 39B6 (Fab, V domains shown)
VH: QVQLVQPGAEVRKPGASVKVSCKASGYRFTSYYIDWVRQAPGQGLEWMGRIDPEDGGTKYAQKFQGRVTMTADTSTSTVYVELSSLRSEDTAVYYCARNEWETVVVGDLMYEYEYWGQGTLVTVSS
VL: DIQMTQSPSSLSASVGDRVTITCQASQSISSYLAWYQQKPGQAPKILIYGASRLKTGVPSRFSGSGSGTSFTLTISSLEPEDAATYYCQQYASVPVTFGQGTKVEIK
notes: as for B3
[10]
  koff: 0.000105 s⁻¹

B6: 39B6-AVE IgG4 S228P (antibody, V domains shown)
VH: QVQLVQPGAEVRKPGASVKVSCKASGYRFTSYYIDWVRQAPGQGLEWMGRIDPEDAGTKYAQKFQGRVTMTADTSTSTVYVELSSLRSEDTAVYYCARVEWETVVVGDLMYEYEYWGQGTLVTVSS
VL: DIQMTQSPSSLSASVGDRVTITCQASQSISSYLAWYQQKPGQAPKILIYGASRLKTGVPSRFSGSGSGTSFTLTISSLEPEDAATYYCQQYASVPVTFGQGTKVEIKR
notes: as for B1
[1]
  Activity on Biacore (%): 68%
[2]
  Fold-difference (KD vs 39B6-A): 0.9 fold
  Kd: 0.894 nM
[3]
  Activity on Biacore (%): 31.3%
[4]
  Activity on Biacore (%): 99%
[5]
  Activity on Biacore (%): 96.9%
[6]
  Activity on Biacore (%): 99.5%
[7]
  Activity on Biacore (%): 99.5%
[8]
  Fold-difference (KD vs 39B6-A): 1 fold
  Kd: 1.29 nM

B7: 39B6-ANR IgG4 S228P (antibody, V domains shown)
VH: QVQLVQPGAEVRKPGASVKVSCKASGYRFTSYYIDWVRQAPGQGLEWMGRIDPEDAGTKYAQKFQGRVTMTADTSTSTVYVELSSLRSEDTAVYYCARNRWETVVVGDLMYEYEYWGQGTLVTVSS
VL: DIQMTQSPSSLSASVGDRVTITCQASQSISSYLAWYQQKPGQAPKILIYGASRLKTGVPSRFSGSGSGTSFTLTISSLEPEDAATYYCQQYASVPVTFGQGTKVEIKR
notes: as for B1
[1]
  Activity on Biacore (%): 85.4%
[2]
  Fold-difference (KD vs 39B6-A): 0.9 fold
  Kd: 0.884 nM
[3]
  Activity on Biacore (%): 46.3%
[4]
  Activity on Biacore (%): 129%
[5]
  Activity on Biacore (%): 85.4%
[6]
  Activity on Biacore (%): 101%
[7]
  Activity on Biacore (%): 101%
[8]
  Fold-difference (KD vs 39B6-A): 1.5 fold
  Kd: 1.94 nM

B8: Fab 39A12 (Fab, V domains shown)
VH: EVQLVQPGAEVKKPGASVKVSCKASGYRFTSYYIDWVRQAPGQGLEWMGRIDPEEGGTKYAQKFQGRVTFTADTSTSTVYVELSSLRSEDTAVYYCARNEWETVVVGDLTYEYEYWGQGTLVTVSS
VL: DIQMTQSPSSLSASVGDRVTITCQASQSISSYLAWYQQKPGQAPKILIYGASRLKTGVPSRFSGSGSGTDFTLTISSLQAEDFATYYCQQYASVPVTFGQGTKVEIK
notes: Germlined Fab from the phage library with human CH1 and Cκ (pCB13), tested as periplasmic extract
[10]
  koff: 0.000606 s⁻¹

B9: Fab 39A5 (Fab, V domains shown)
VH: QVQLVQPGAELRNPGASVKVSCKASGYRFTSYYIDWVRQAPGQGLEWMGRIDPEDGGTKYAQKFQGRVTFTRDTSTSTVYMELSSLRSEDTAVYYCARNEWETVVVGDLMYEYEYWGQGTLVT
VL: DIQMTQSPSSLSASLGDRVTITCQASQSISSYLAWYQQKPGQAPKLLIYGASRLKTGVPSRFSGSGSGTDFTLTISSLQPEDAATYYCQQYASVPVTFGQGTKVEIK
notes: as for B3
[10]
  koff: 0.00019 s⁻¹
